Changes are numbered by the printed parent chain.
B1: E7-11-28 (TCR, V domains shown)
Valpha: GQQVMQIPQYQHVQEGEDFTTYCNSSTTLSNIQWYKQRPGGHPVFLIQLVKSGEVKKQKRLTFQFGEAKKNSSLHITATQTTDVGTYFCAGIGSSNTGKLIFGQGTTLQVKP
Vbeta: EPEVTQTPSHQVTQMGQEVILRCVPISNHLYFYWYRQILGQKVEFLVSFYNNEISEKSEIFDDQFSVERPDGSNFTLKIRSTKLEDSAMYFCAITGRVSYEQYFGPGTRLTVT
B2: E7-11-176 (TCR, V domains shown)
Valpha: DQQVKQNSPSLSVQEGRISILNCDYTNSMFDYFLWYKKYPAEGPTFLISISSIKDKNEDGRFTVFLNKSAKHLSLHIVPSQPGDSAVYFCAAKNSNSGYALNFGKGTSLLVTP
Vbeta: not shown
B3: E7-11-194 (TCR, V domains shown)
Valpha: B1 Valpha with I92L
Vbeta: B1 Vbeta with I94T, V98A
B4: E7-11-455 (TCR, V domains shown)
Valpha: QKEVEQDPGPLSVPEGAIVSLNCTYSNSAFQYFMWYRQYSRKGPELLMYTYSSGNKEDGRFTAQVDKSSKYISLFIRDSQPSDSATYLCAMAGSGNTGKLIFGQGTTLQVKP
Vbeta: DTGVSQDPRHKITKRGQNVTFRCDPISEHNRLYWYRQTLGQGPEFLTYFQNEAQLEKSRLLSDRFSAERPKGSFSTLEIQRTEQGDSAMYLCASSSSTKNIQYFGAGTRLSVL

Molecular target: T1, HPV16 E7 peptide on HLA-A*02:01 (human)
T1 peptide: YMLDLQPET
Assay: multimer staining

Binding result, recognises:
B1, B2, B3, B4
